Consider 63 sequences from the supplement of paper PMC9112550, “Optimization of the antimicrobial peptide Bac7 by deep mutational scanning” (BMC Biology, 2022).
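Also: peptides expressed intracellularly from a pBAD plasmid library in pooled LB shake-flask culture, induced with 0.3% L-arabinose, DNA abundance read by NGS, three biological replicates, DESeq2 with apeglm shrinkage.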

This series has as its system Escherichia coli TOP10. Put plainly: shrunken log2 fold change of peptide-encoding DNA abundance (4.5 h post-induction vs induction); higher = less antimicrobial activity (less host growth inhibition). The conditions noted are these: time post-induction: 4.5 h; library: site-saturation at positions 5, 18, 19, 20.
Regarding RRIRERPPRLPRPRPRPCWNPRP, the “shrunken log2 fold change” value was -0.107.

Regarding RRIRKRPPRLPRPRPRPMAPPRP, the “shrunken log2 fold change” value amounted to 0.0811.

As for RRIRARPPRLPRPRPRPDVQPRP, the “shrunken log2 fold change” value amounted to 0.474.

Take RRIRFRPPRLPRPRPRPSDFPRP: the “shrunken log2 fold change” value was -0.487.

As to RRIRMRPPRLPRPRPRPICHPRP, the “shrunken log2 fold change” value turned out to be 0.0206.

Turning to RRIRNRPPRLPRPRPRPEMDPRP, the “shrunken log2 fold change” value turned out to be 0.294.

Turning to RRIRKRPPRLPRPRPRPQGVPRP, the “shrunken log2 fold change” value is -0.0162.

Consider RRIRHRPPRLPRPRPRPEHYPRP, for which the “shrunken log2 fold change” value was found to be 0.504.

For RRIRIRPPRLPRPRPRPSCYPRP, the “shrunken log2 fold change” value was -0.392.

With RRIRMRPPRLPRPRPRPYRLPRP, the “shrunken log2 fold change” value was -0.0977.

For the sequence RRIRLRPPRLPRPRPRPMIIPRP, the “shrunken log2 fold change” value is -0.407.

For the sequence RRIRMRPPRLPRPRPRPIVAPRP, the “shrunken log2 fold change” value was determined as 0.156.

In the case of RRIRLRPPRLPRPRPRPHFWPRP, the “shrunken log2 fold change” value came out at 0.144.

On to RRIRTRPPRLPRPRPRPWFRPRP, for which the “shrunken log2 fold change” value is -0.128.

Consider RRIRNRPPRLPRPRPRPIEHPRP, for which the “shrunken log2 fold change” value is -0.307.

In the case of RRIRLRPPRLPRPRPRPMTAPRP, the “shrunken log2 fold change” value was found to be 0.0114.

As to RRIRRRPPRLPRPRPRPRGSPRP, the “shrunken log2 fold change” value was found to be 0.729.

Consider RRIRFRPPRLPRPRPRPEWWPRP, for which the “shrunken log2 fold change” value stood at 0.0105.

On to RRIRMRPPRLPRPRPRPCFQPRP, for which the “shrunken log2 fold change” value is -0.0397.

On to RRIRCRPPRLPRPRPRPKQMPRP, for which the “shrunken log2 fold change” value is 0.364.

RRIRSRPPRLPRPRPRPYCMPRP: the “shrunken log2 fold change” value is -0.881.

Turning to RRIRDRPPRLPRPRPRPVGVPRP, the “shrunken log2 fold change” value turned out to be 0.189.

In the case of RRIRVRPPRLPRPRPRPYIGPRP, the “shrunken log2 fold change” value is -0.661.

On to RRIRPRPPRLPRPRPRPSAMPRP, for which the “shrunken log2 fold change” value was 0.0584.

Regarding RRIRGRPPRLPRPRPRPITQPRP, the “shrunken log2 fold change” value was -0.0614.

Consider RRIRMRPPRLPRPRPRPWPDPRP, for which the “shrunken log2 fold change” value stood at 0.592.

Regarding RRIRVRPPRLPRPRPRPNKMPRP, the “shrunken log2 fold change” value was -0.411.

Regarding RRIRVRPPRLPRPRPRPRMFPRP, the “shrunken log2 fold change” value is -0.0394.

On to RRIRQRPPRLPRPRPRPIYAPRP, for which the “shrunken log2 fold change” value is -0.222.

Take RRIRERPPRLPRPRPRPIIGPRP: the “shrunken log2 fold change” value was -0.249.

As for RRIRMRPPRLPRPRPRPNFFPRP, the “shrunken log2 fold change” value worked out at 0.128.

Turning to RRIRNRPPRLPRPRPRPSWLPRP, the “shrunken log2 fold change” value was -0.361.

With RRIRQRPPRLPRPRPRPIWEPRP, the “shrunken log2 fold change” value was found to be 0.0296.

With RRIRWRPPRLPRPRPRPMMSPRP, the “shrunken log2 fold change” value was 0.19.

As to RRIRVRPPRLPRPRPRPECEPRP, the “shrunken log2 fold change” value came to 0.605.

Regarding RRIRSRPPRLPRPRPRPPEQPRP, the “shrunken log2 fold change” value is 0.306.

Turning to RRIRARPPRLPRPRPRPLMKPRP, the “shrunken log2 fold change” value worked out at 0.106.

In the case of RRIRRRPPRLPRPRPRPCTSPRP, the “shrunken log2 fold change” value stood at 0.0211.

Consider RRIRDRPPRLPRPRPRPTLKPRP, for which the “shrunken log2 fold change” value is -0.0215.

In the case of RRIRNRPPRLPRPRPRPFWWPRP, the “shrunken log2 fold change” value was -0.0225.

With RRIRHRPPRLPRPRPRPSMHPRP, the “shrunken log2 fold change” value is -0.705.

For the sequence RRIRNRPPRLPRPRPRPIHYPRP, the “shrunken log2 fold change” value was -0.285.

In the case of RRIRRRPPRLPRPRPRPEACPRP, the “shrunken log2 fold change” value amounted to 0.463.

As for RRIRSRPPRLPRPRPRPNKPPRP, the “shrunken log2 fold change” value was -0.23.

With RRIRNRPPRLPRPRPRPWKHPRP, the “shrunken log2 fold change” value was -0.347.

As for RRIRYRPPRLPRPRPRPRGRPRP, the “shrunken log2 fold change” value amounted to 0.142.

Regarding RRIRFRPPRLPRPRPRPPCVPRP, the “shrunken log2 fold change” value worked out at 0.0878.

As to RRIRPRPPRLPRPRPRPNNGPRP, the “shrunken log2 fold change” value was -0.335.

Regarding RRIRFRPPRLPRPRPRPRTVPRP, the “shrunken log2 fold change” value is 0.086.

Consider RRIRIRPPRLPRPRPRPPRYPRP, for which the “shrunken log2 fold change” value is -0.217.

Take RRIRIRPPRLPRPRPRPSIFPRP: the “shrunken log2 fold change” value is -0.764.

In the case of RRIRERPPRLPRPRPRPFTEPRP, the “shrunken log2 fold change” value was -0.184.

RRIRMRPPRLPRPRPRPFNRPRP: the “shrunken log2 fold change” value is -0.00136.

RRIRYRPPRLPRPRPRPLRGPRP: the “shrunken log2 fold change” value worked out at 0.561.

With RRIRDRPPRLPRPRPRPVRQPRP, the “shrunken log2 fold change” value came out at 0.000541.

With RRIRQRPPRLPRPRPRPTNDPRP, the “shrunken log2 fold change” value was -0.296.

Regarding RRIRKRPPRLPRPRPRPVLTPRP, the “shrunken log2 fold change” value came out at 0.342.

On to RRIRKRPPRLPRPRPRPHGKPRP, for which the “shrunken log2 fold change” value turned out to be 0.109.

Regarding RRIRCRPPRLPRPRPRPCFGPRP, the “shrunken log2 fold change” value was -0.137.

Take RRIRSRPPRLPRPRPRPEADPRP: the “shrunken log2 fold change” value turned out to be 0.688.

As to RRIRWRPPRLPRPRPRPDFTPRP, the “shrunken log2 fold change” value was determined as 0.15.

RRIRNRPPRLPRPRPRPSMFPRP: the “shrunken log2 fold change” value was -0.458.

For the sequence RRIRIRPPRLPRPRPRPQKLPRP, the “shrunken log2 fold change” value was -0.277.
